Here are results for one molecule from PMC3965382.

The target in this assay is T1, purified Gαs, P63092.
T1 chain: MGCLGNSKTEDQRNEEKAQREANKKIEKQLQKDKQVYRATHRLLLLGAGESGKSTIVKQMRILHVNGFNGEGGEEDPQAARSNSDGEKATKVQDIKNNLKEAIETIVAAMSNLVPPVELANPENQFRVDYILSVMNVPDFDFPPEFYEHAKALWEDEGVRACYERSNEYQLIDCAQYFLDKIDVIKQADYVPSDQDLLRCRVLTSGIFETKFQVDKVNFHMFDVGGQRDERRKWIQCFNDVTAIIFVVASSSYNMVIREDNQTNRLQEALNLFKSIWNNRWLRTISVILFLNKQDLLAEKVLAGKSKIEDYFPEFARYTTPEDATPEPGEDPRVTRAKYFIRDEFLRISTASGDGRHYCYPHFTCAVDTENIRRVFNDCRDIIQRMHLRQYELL
The experiment in a line: SPR. Conditions: chain shown with the change, read off a plot.

B1: wild-type coronin 1, HA-tagged, O89053 K20A; R69A; K355A; E102A (protein)
chain: MSRQVVRSSKFRHVFGQPAAADQCYEDVRVSQTTWDSGFCAVNPKFMALICEASGGGAFLVLPLGKTGAVDKNVPLVCGHTAPVLDIAWCPHNDNVIASGSADCTVMVWEIPDGGLVLPLREPVITLEGHTKRVGIVAWHPTAQNVLLSAGCDNVILVWDVGTGAAVLTLGPDVHPDTIYSVDWSRDGALICTSCRDKRVRVIEPRKGTVVAEKDRPHEGTRPVHAVFVSEGKILTTGFSRMSERQVALWDTKHLEEPLSLQELDTSSGVLLPFFDPDTNIVYLCGKGDSSIRYFEITSEAPFLHYLSMFSSKESQRGMGYMPKRGLEVNKCEIARFYKLHERKCEPIAMTVPRASDLFQEDLYPPTAGPDPALTAEEWLGGRDAGPLLISLKDGYVPPKSRELRVNRGLDSARRRATPEPSGTPSSDTVSRLEEDVRNLNAIVQKLQERLDRLEETVQAK
B1: the response is 25 RU (500 nM coronin 1 injected over immobilized Gαs, parent: est. 120) and 76 RU (1000 nM coronin 1 injected over immobilized Gαs, parent: est. 400).
